Reference: the supplement of paper PMC9942255

Test system: Bacillus subtilis DB104 (SP-AmyQ fusion secretion)
Assay: AmyQ secretion efficiency, weighted average sort bin (1 = best secretion, 10 = worst) (bin number (weighted average, 1-10)); higher = lower secretion efficiency
Summary of the method: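 With fluorescein-starch as substrate, a B. subtilis DB104 library expressing mature AmyQ fused to designed signal peptides (integrated at amyE) was encapsulated at about 0.3 cells per ~65 nL alginate bead. After about 13 h at room temperature, beads were nile red stained, and occupied beads were sorted by large-particle flow cytometry into 10 equally populated bins by green/red fluorescence ratio. Illumina sequencing of the amplicons in each bin was used to calculate the secretion score, which is the read-frequency-weighted average bin number, normalised to beads per bin, with low-abundance sequences left out.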

Sequence	AmyQ secretion efficiency
MLKKKWMVRRRKGCLAAGGFSYNAFATEN	7.58
MLKKKWVGLLAGCLAAGGFSYNAFATEN	4.85
MLKKTILAAFILVGSTLGAFSFSSDASAKHV	2.16
MLKKVILAAFILVGSTLGAFSFSSDASAARK	2.12
MLKKVILAAFILVGSTLGEDSFSSDASAKHV	4.32
MLKKVILAAFILVGSTLGRKSFSSKASAKHV	6.14
MLKKVILAAFILVGSTLGRRKRKSRASAKHV	5.28
MLKKVKRAAFILVGSTLGAFSFSSDASAKHV	1.33
MLKKVKRRRFILVGSTLGAFSFSSDASAKHV	7.34
MLKKVRKRRKKLVGSTLGAFSFSSDASAKHV	6.7
MLKNRILALFVLSLGLLSFMVTPVSAASK	1.67
MLKRLIAPMLLSAASLAFFAMSGSAQAAAY	3.75
MLKRTSFVSLFISSAVLLSILLPSGQAHAQSA	1.67
MLKRTSFVSSGKYTTAVLLSILLPSGQAHAQSA	2.65
MLKRTSFVSSLFIFMAVLLIILTLPSGQAHAQSA	1.9
MLKRTSFVSSLFISSAVLLLPSGQAHAQSA	1.64
MLKRTSFVSSLFISSAVLLSILEDDDDDAHAQSA	5.08
MLKRTSFVSSLFISSAVLLSILKKKGQAHAQSA	7
MLKRTSFVSSLFISSAVLLSILLGSGQAHAQSA	2.06
MLKRTSFVSSLFISSAVLLSILLIASTAHAQSA	3.17
MLKRTSFVSSLFISSAVLLSILLPSGQAHADDD	4.33
MLKRTSFVSSLFISSAVLLSILLPSGQAHAQKR	2.41
MLKRTSFVSSLFISSAVLLSILLPSGQAHARKR	3.12
MLKRTSFVSSLFISSAVLLSILLPSGQGHAQSA	1.31
MLKRTSFVSSLFISSAVLLSILLPSGQIHAQSA	2.68
MLKRTSFVSSLFISSAVLLSILLPSGQLHAQSA	1.71

Sequence	AmyQ secretion efficiency
MLKRTSFVSSLFISSAVLLSILLPSGQTHAQSA	1.61
MLKRTSFVSSLFISSAVLLSILLPSGQVHAQSA	1.69
MLKRTSFVSSLFISSAVLLSILRRKRRRAHAQSA	7.6
MLKRTSFVSSLFISSAVLLSILTPDGQAHAQSA	1.39
MLKRTSFVSSLKKSSAVLLSILLPSGQAHAQSA	3.11
MLKRTSFVSSLRRKRKKLLSILLPSGQAHAQSA	6.99
MLKRTSFVSSQGQGSRTLLSILLPSGQAHAQSA	7.6
MLKRTSFVSSSFISSAVLLSILLPSGQAHAQSA	2.16
MLKRTSFVSSSSLFISSAVLLSILLPSGQAHAQSA	1.71
MLKRTSLFISSAVLLSILLPSGQAHAQSA	2.05
MLLGKILLSSALSLGMLVSAAPVLATSS	6.9
MLLKWMSGLLLVAVGFSFTQVMVHAGET	5.02
MLLNLAAGLTASAIVGTTLVVTPAEAATI	6.11
MLMKVILAAFILVGSTLGAFSFSSDASAKHV	2
MLMLCLWFTVFSLFLVLLPGKALGAVD	5.08
MLMLLSTLLIGIMLLTFAPSAFAKQD	4.38
MLMLWNSLALCGLALTLAPCAQAAEP	2.76
MLMSIALTLCPAIVGSLLFFTAPASAHVS	4.17
MLNGIISFLLVSFVLFFALSTGITGVQAAPA	3.09
MLRITINIITMFIAAAVISLTGTAEAAEK	3.59
MLSIWIGMLAAAVLLLMVPKVSLADAA	6.86
MLSMNLWISLLFALTLIFTMAFSNMSAQAAGK	1.93
MLSSKWMVGLLAGCLAAGGFSYNAFATEN	3.83
MLTFLIGAGVAAVILSGWFIADHQTHSQEM	6.55
MLTFLWMVGLLAGCLAAGGFSYNAFATEN	7.84
MLTINLLTIYIMLLGLIAWFPGAAQAEEK	4.46

Sequence	AmyQ secretion efficiency
MLTKRGRYYYRTLLGLIAWFPGAAQAEEK	9.36
MLTKRLLLTIYIMLLGLIAWFPGAAQAEEK	2.22
MLTKRLLTIYIMLLGLIAWFPGAAQAAED	2.99
MLTKRLLTIYIMLLGLIAWFPGAAQAAKK	4.2
MLTKRLLTIYIMLLGLIAWFPGAAQAASK	1.8
MLTKRLLTIYIMLLGLIAWFPGAAQAATP	2.42
MLTKRLLTIYIMLLGLIAWFPGAAQAEDE	3.66
MLTKRLLTIYIMLLGLIAWFPGAAQAKRK	6.07
MLTKRLLTIYIMLLGLIAWFPGAAQCEEK	2.82
MLTKRLLTIYIMLLGLIAWFPGAAQGEEK	2.56
MLTKRLLTIYIMLLGLIAWFPGAIQAEEK	2.08
MLTKRLLTIYIMLLGLIAWFPGALQAEEK	2.66
MLTKRLLTIYIMLLGLIAWFPGASQAEEK	4.32
MLTKRLLTIYIMLLGLIAWFPGATVPAQAEEK	2.86
MLTKRLLTIYIMLLGLIDDDPGAAQAEEK	9.93
MLTKRLLTIYIMLLGLIFLVALAWFPGAAQAEEK	4.8
MLTKRLLTIYIMLLGLIFVILSALSAAWFPGAAQAEEK	4.31
MLTKRLLTIYIMLLGLIKKKRKKAQAEEK	7.57
MLTKRLLTIYIMLLGLILAWFPGAAQAEEK	2.09
MLTKRLLTIYIMLLGLIRRKPGAAQAEEK	7.69
MLTKRLLTIYIMLLGLITWFPGAAQAEEK	2.44
MLTKRLLTIYIMLLMLIAWFPGAAQAEEK	1.61
MLTKRLRKKKRRLLGLIAWFPGAAQAEEK	7.67
MLTKRQLTIYIMLLGLIAWFPGAAQAEEK	2.9
MLTKRTTTSLLTIYIMLLGLIAWFPGAAQAEEK	3.1
MLTLRTLCVLMILSGVIFFGLKIDAKDI	6.18

Sequence	AmyQ secretion efficiency
MLYLKRVLLLLVTGLFMSLFAVTATASAQTG	1.49
MMFMFLLCVMMLLFSAIASFPVSAQAKDQ	6.02
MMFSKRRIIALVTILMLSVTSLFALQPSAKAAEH	1.68
MMGIMIFLTSFMLLAMTGQTALAKDV	3.75
MMGKGLLAGALTATVLFGTCAVDVPGIISPKTAEAASQ	1.48
MMGRKVLTGSVLSLGLLVSASPAFATSP	2.07
MMGVLLSALLLLLFAFEPSASGKKL	6.16
MMIGQCVICLSLLVFGTTAAHAEET	4.07
MMIKQCKKCLSLLVFGTTAAHAEET	7.22
MMIKQCKRCKKRKVFGTTAAHAEET	7.72
MMIKQCRKCKRLLVFGTTAAHAEET	6.79
MMIKQCTICLSLLVFGTTAAHAEET	2.71
MMIKQCVICLSLLVFGTEDEEEEAHAEET	6.81
MMIKQCVICLSLLVFGTEEDAHAEET	3.44
MMIKQCVICLSLLVFGTIAIAHAEET	4.16
MMIKQCVICLSLLVFGTRRKAHAEET	7.59
MMIKQCVICLSLLVFGTTAAHAARR	5.39
MMIKQCVICLSLLVFGTTAAHARKR	6.42
MMIKQCVICLSLLVFGTTAAHSEET	4.24
MMIKQCVICLSLLVFGTTASGTAHAEET	2.45
MMIKQCVICLSLLVFGTTAVHAEET	1.9
MMIKQCVICLSLLVFGTTKAHAEET	2.63
MMIKQCVICLSLLVFGTTTAHAEET	2.61
MMIKQCYGCKSLLVFGTTAAHAEET	7.62
MMIKQNMSSCVICLSLLVFGTTAAHAEET	2.9
MMIKQNMSSNSSCVICLSLLVFGTTAAHAEET	4.39

Sequence	AmyQ secretion efficiency
MMIMQCVICLSLLVFGTTAAHAEET	2.38
MMITWNVCLTALLSVLLVAGSVPFHAEAKKP	3.89
MMKCVICLSLLVFGTTAAHAEET	3.1
MMKKGLLAGALTATVLFGTCAVDVPGIISPKTAEAAKR	4.03
MMKKGLLAGALTATVLFGTCAVDVPGIISPKTAEAASR	2.71
MMKKGLLAGALTATVLFGTCAVDVPGIISPKTIEAASQ	4.02
MMKKGLLAGALTATVLFGTCAVDVPKAEAASQ	1.63
MMKKGLLAGALTATVLFGTCAVGVPGIISPKTAEAASQ	1.35
MMKKGLLAGALTATVLFGTCKDAEAASQ	1.66
MMKKGLLAGALTATVLFIGTCAVDVPGIISPKTAEAASQ	1.04
MMKKGLLAGALTATVLFRKCAVRVPGIISPKTAEAASQ	6.57
MMKKGQSGSALTATVLFGTCAVDVPGIISPKTAEAASQ	6.78
MMKKGRSRQQLTATVLFGTCAVDVPGIISPKTAEAASQ	7.68
MMKKGSLFFLLAGALTATVLFGTCAVDVPGIISPKTAEAASQ	3.32
MMKKLAAGLTASAIVGTTLVVTPAEAATI	2.13
MMKKLFHSTLIVLLFFSFFGVIPIHAKKQ	1.92
MMKKLFHSTLIVLLFFSFFGVKRKIHAKKQ	3.3
MMKKLFHSTLIVLLFFSFFGVQIHAKKQ	2.18
MMKKLFHSTLIVLLFFSFFGVQPCHAKKQ	1.69
MMKKLFHSTLIVLLFFSFFGVQPEIHAKKQ	2.24
MMKKLFHSTLIVLLFFSFFGVQPGHAKKQ	2.96
MMKKLFHSTLIVLLFFSFFGVQPIHAAED	3.19
